Common to all, as to test: cell-based or functional assay
The target of assay [1] is GHRH receptor (GHRH-R) (human) (UniProt Q02643).
Assay [2] addresses GPR101 (human) (UniProt Q96P66).
Assay [3] concerns the target somatostatin receptor 2 (SSTR2) (human) (UniProt P30874).
Assay [4] deals with somatostatin receptors (multi-somatostatin receptor).

UniProt Q02643, sequence (Q02643 23-423): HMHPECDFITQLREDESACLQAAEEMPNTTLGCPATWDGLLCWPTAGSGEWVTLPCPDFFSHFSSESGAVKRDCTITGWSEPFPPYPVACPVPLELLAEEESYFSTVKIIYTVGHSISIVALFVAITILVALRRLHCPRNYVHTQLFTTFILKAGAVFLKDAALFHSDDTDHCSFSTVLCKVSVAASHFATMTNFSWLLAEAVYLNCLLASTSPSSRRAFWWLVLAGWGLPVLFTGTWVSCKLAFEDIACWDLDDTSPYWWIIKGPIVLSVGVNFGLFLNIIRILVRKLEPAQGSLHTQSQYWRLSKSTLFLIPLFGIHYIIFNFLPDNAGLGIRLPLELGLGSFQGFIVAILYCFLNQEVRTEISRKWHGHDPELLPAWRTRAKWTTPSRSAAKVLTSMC
UniProt P30874, sequence (P30874 whole entry): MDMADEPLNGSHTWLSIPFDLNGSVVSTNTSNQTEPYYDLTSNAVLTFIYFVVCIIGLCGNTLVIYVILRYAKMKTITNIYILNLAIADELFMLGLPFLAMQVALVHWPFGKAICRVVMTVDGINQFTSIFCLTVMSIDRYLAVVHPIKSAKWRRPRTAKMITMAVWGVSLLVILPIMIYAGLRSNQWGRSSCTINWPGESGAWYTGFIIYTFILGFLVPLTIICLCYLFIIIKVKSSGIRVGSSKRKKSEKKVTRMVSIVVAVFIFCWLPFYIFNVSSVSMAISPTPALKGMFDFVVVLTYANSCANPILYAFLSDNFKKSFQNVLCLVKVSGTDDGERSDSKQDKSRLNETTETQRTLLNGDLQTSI
UniProt Q96P66, sequence (Q96P66 whole entry): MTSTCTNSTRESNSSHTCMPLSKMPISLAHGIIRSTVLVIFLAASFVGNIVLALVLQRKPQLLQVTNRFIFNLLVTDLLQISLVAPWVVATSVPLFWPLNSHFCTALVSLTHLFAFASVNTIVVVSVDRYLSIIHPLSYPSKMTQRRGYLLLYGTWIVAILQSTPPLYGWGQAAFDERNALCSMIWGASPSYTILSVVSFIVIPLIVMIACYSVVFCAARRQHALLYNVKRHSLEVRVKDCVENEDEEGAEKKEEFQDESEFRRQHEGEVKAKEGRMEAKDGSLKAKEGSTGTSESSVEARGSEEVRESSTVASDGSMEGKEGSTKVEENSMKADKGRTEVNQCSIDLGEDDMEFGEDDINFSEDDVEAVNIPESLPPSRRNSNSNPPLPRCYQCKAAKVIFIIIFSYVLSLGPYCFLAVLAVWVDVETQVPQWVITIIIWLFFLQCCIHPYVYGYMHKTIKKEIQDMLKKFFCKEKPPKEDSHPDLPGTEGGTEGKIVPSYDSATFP

Regarding “GH releasing hormone (GHRH) (from UniProt P01286 32-75) (ligand)”, in assay [1], the GH secretion by primary X-LAG pituitary tumour cells, % change vs control wells, GHRH at 10^-10 M came out at 410% and the Prolactin secretion by primary X-LAG pituitary tumour cells, % change vs control wells, GHRH at 10^-8 M amounted to 11%.
“GnRH1-5 (from UniProt P01148 24-28) (peptide)” registered a GH secretion by primary X-LAG pituitary tumour cells, % change vs control, GnRH1-5 at 10^-10 M in assay [2] of 15%.
In the case of octreotide (peptide), the Prolactin secretion by primary X-LAG pituitary tumour cells, % change vs control, octreotide at 10^-9 M in assay [3] was -26%.
In the case of pasireotide (peptide), the GH secretion by primary X-LAG pituitary tumour cells, % change vs control, maximum inhibition at 10^-8 M in assay [4] is -18%.
